In paper PMC4663276:

Tests used:
[1] = molecular target: TirM-TarP FL (full-length C. caviae GPIC TarP fused to TirM) (Chlamydia caviae strain GPIC)
[2] = molecular target: TirM-ΔVBS1 (TarP VBD deleted for VBS1, Thr714-Arg832, fused to TirM) (Chlamydia caviae strain GPIC)

vinculin (natural protein)
frequency of vinculin recruitment to Δtir EPEC-clustered TirM fusion at the plasma membrane of Cos7 cells (immunofluorescence), TarP-FL relative to TirM-TarP1-714 [1]: 3 fold
frequency of vinculin recruitment to Δtir EPEC-clustered TirM fusion at the plasma membrane of Cos7 cells (immunofluorescence), decrease relative to WT VBD [2]: 1.6 fold
